In the DeepSol protein solubility set:

assay: soluble on expression in E. coli; label from the status in PepcDB or PDB records

Sequence | soluble on expression in E. coli
MGSDKIHHHHHHMTLKVTLCDDSKMARKQLLRTLPDDWDAEVHQAEHGEQALTCLREGRAEVLFLDLNMPVKDGYETLQAIKEEQLETLVIVVSGDIQPEAQKRVQALGAMAFVKKPMKPEDIQTLLQQFGLYQPAAGQLKLADETPQAPANPLDVYREVSNVAMGQAGDHLARVLDTFIELPVPNVNFIAPSELHMAIESIDTNKQVAAVSQGFSGSGILGEALTLFNDASIDDIGKLLGAKLGESGSIKQQRIESLMDVASILSSACLNGLGQQLHVEFAASQPVLLGEHQSMRELIKHGEHRWQKILAIEIGYQLPEHKLAFDLLLLFPADAVKILDQQLAHWLQGDDE | not soluble
MGSDKIHHHHHHMLKHLDNITDCRSHINQEHDVIDICFLVLSAVISGAQSWSACHEFGTLELEWLRKYRPFTNGIPSQQSIGRIFRGVSKQSLLDALMSWVNEYRVNTGQSSIAIDGKVLKGAKASASSAALHMVTAYDTGSGLVFSAKSGASKKSELKLVQELLTCLDLKSELLTFDALHCQSQTLDYIAKEGGDCILQVKGNQPKLYEALQAQFTDYIENNPDAECFTETNKGHGRVEKRITFQCPLNLPAEIKMKWSQLKTLIAVERHRKVGNKTSIDTHFYVSSAVLTSEAFGRAIRAHWQTENNQHWLLDKLFQEDKQKMYDEDGASILAILRRWALNLVKLHPAKTSQTQKFNRACWSDDFREEIIFGTGQKV | not soluble
MKFDKPAGENPIDQLKVVGRPHDRIDGPLKTTGTARYAYEWHEEAPNAAYGYIVGSAIAKGRLTALDTDAAQKAPGVLAVITASNAGALGKGDKNTARLLGGPTIEHYHQAIALVVAETFEQARAAASLVQAHYRRNKGAYSLADEKQAVNQPPEDTPDKNVGDFDGAFTSAAVKIDATYTTPDQSHMAMEPHASMAVWDGNKLTLWTSNQMIDWCRTDLAKTLKVPVENVRIISPYIGGGFGGKLFLRSDALLAALAARAVKRPVKVMLPRPSIPNNTTHRPATLQHLRIGADQSGKITAISHESWSGNLPGGTPETAVQQSELLYAGANRHTGLRLATLDLPEGNAMRAPGEAPGLMALEIAIDELAEKAGIDPVEFRILNDTQVDPADPTRCFSRRQLIECLRTGADKFGWKQRNATPGQVRDGEWLVGHGVAAGFRNNLLEKSGARVHLEQNGTVTVETDMTDIGTGSYTILAQTAAEMLGVPLEQVAVHLGDSSFPVSAGSGGQWGANTSTSGVYAACMKLREMIASAVGFDPEQSQFADGKITNGTRSATLHEATAGGRLTAEESIEFGTLSKEYQQSTFAGHFVEVGVHSATGEVRVRRMLAVCAAGRILNPKTARSQVIGAMTMGMGAALMEELAVDDRLGYFVNHDMAGYEVPVHADIPKQEVIFLDDTDPISSPMKAKGVGELGLCGVSAAIANAVYNATGIRVRDYPITLDKLLDKLPDVV | not soluble
MASFTSPDIDEKLAILHREMASLRVECDRLLNKHLIVEHTLSQSCSGWPNGAADTSSAYNTGGESCRSVSVTPDGVFIPTTSNSQMIQSQPSPRVLRRTVKMASPAVQRRLVPQNLPTSSSSRPPTVLLPHDSPEQPSRPIHRMHQELPIPEDVVSMVSSNKTQRSIIRAPSAVFGALKGSSLRKLSISRNIQMTTKVNKEESDRKEKEAEEYAKRFRIPSYSVVLKEEKRKSSFRIPVPHYFRSSKAKSKVYQVDAPDEEIEEVIDEEKMAAKTDLGDTTVHYKWKVKRRCDGSRYIVKRPIRSQILKKREAQVYRERAPISTDDDAMSELKLGRYHTKEERKRILERENTKKMLKLQQKMMEKAHPSEQVIYQMSQQKLARQKDAMVMDEFVTTREVLSSRTRPDGIHGVVSVTTV | not soluble
MEWKPNRADKTPVYKQIADYIERGISSGEFPSDSKLPSERMLAKELQVNRSTIVAAYEELKSLGVVERQKGSGTRVNTDIWGVSHKRIPNWGRYVEDGSFLPNVPLVQQIRTETQKDDLINLASGELSPELIPSDRFRTILSEKTFMENLGYDHPLGNEMLRKTIAAHVQQYKQIEADSSSILITSGAQQALNLIVQCLLKPGDAIAIEDPSYCFSLPMFKSAGLNIFHLPVDEHGMNPDDLIDLHKKHRIRMVFLNPDYQNPTGTVLSLARRKKILELSSEFGIPIVEDDPYSLISFNGEVNPTLKSMDQNGNVLYISSLSKIVASGLRIGWIIGPTRVIERLADAKQQVDFGHSVFTQWVANQFLESKDFHKHITILRGQLKQRRDVLIAELEGTLGDRVECFVPEGGIHVWCKVKGKFDEYHLLGESIQNGVAFVPGSVLGSKNEYIRFTFGRANIEQIQLGIKRFADTLNEIS | not soluble
MSLANQVLAVNDDLPIRTHKPVHSGKVRSVYWLTEEDSARLIKEKGYDVAPDAPLAIMVISDRISAFDCIWHGEGGLKGVPGKGAALNAISNHWFKLFKDNGLADSHILDIPHPFVWIVQKAKPVKIEAICRKYITGSMWRAYANGEREFCGIQLPEGLEKDKALPNLLMTPSTKGILKGIPGVPEADDVNITRQNIVDNYEAFNFSSAEDIAQYEKLLKEGFNVISQALEGIDQIFVDTKFEFGYVHDAAGNEKLIYMDEVGTPDSSRIWDAKEYQAGNIVENSKEGFRQFLLNHFPDPDILLNKERMPEREALARDNDLPVESLMDISRTYIGIAEKITGKPITLSENPKAEIIEILSKEYGLIDEGHHHHHH | soluble
MAETDPKTVQDLTSVVQTLLQQMQDKFQTMSDQIIGRIDDMSSRIDDLEKNIADLMTQAGVEELESENKIPATQKS | not soluble
MAHHHHHHMVGLVKPLFPNTLLTEAQDERRLLTLVLDLDETLVSNRDSRQSAAVLRPYCLHVLNALRHMKELEIVLWTASTKETALPVVDQLHKTGIIFDDIIFRNSIWFTQPIHTKDLRLLGRDMNRVLIVDNSVGCCKLHPRNALLVEDFHGVKRREDAALVNVYYVVDALLRMMRERTMPVSEGLGCLMAEGQLCHPVSYDLPAFFKCIPLTEVPELKRPPVGRFARANTAPPNTSIMQHWVY | soluble
MGSDKIHHHHHHMMRENLAYLEPPLRIAILSQGPQLYSTKRLVEAAQARGHDVHIINPLKCYMNINMRQPSIHIAGKELPQFDAVIPRIGASITFYGSAVLRQFEMMGVYTINDSVGISRSRDKLRSMQLLSRKGIGLPITGFANKPSDIPDLIDMVGGAPLVVKLLEGTQGIGVVLAETRKAAESVLEAFMGLKANIMVQEYIKEANGADIRCFVLGDKVIAAMKRQAKAGEFRSNLHRGGTATLVKLSPEERTTAIRAAKTMGLSLAGVDLLRSNHGPVVMEVNSSPGLEGIEAATQKDVANAIIEFIEKNANKAKS | not soluble
AIAATPTEHEDLSEQEVTEDEFKTPKIRETPEDIKLEAIVNTIAFHPKQDILAAGDIDGDIYLFSYSCTEGENKELWSSGHHLKSCRKVLFSSDGQKLFSVSKDKAIHIMDVEAGKLETRIPKAHKVPINAMLLIDENIFATGDDEGTLKVWDMRKGTSFMDLKHHEDYISDITIDQAKRTLLTSSGDGTLGVFNIKRRRFELLSEIQNGDLTSVSIMKRGRKVVCGSGEGTIYIFNWNGFGATSDRFAVQAESVDCIVPITDSILCAASTDGVIRAINILPNRVVGSIGQHVGEAIEEIARCRDTHFLASCAHDELIKFWDISSLPDEKVNDYRRRKKKDRRLKALSNKAFDTGQNFFAGLLDTTEENGKEGENDEDDDDEDSDSGSD | soluble
MGSDKIHHHHHHMSSFAEFSRLALTLEPWRQHIVFVGGWAFRLYGYEPRAYTADHKPIFTQDADVAYDKRELIEGDIKTALEGAGFTEQPNLAGGFRPPAMRYNLDGDENGFYAEFLTPLTGSGKKRDGKGGLKEDATERYAGIVAQKLRFLEVLLFKPWLVTIPKEESGLDEAVADLRVPNPVSFMIQKLLIRDRREGKKRAQDVLYIHGTLQIFYGVVENDLVPIWKELEATLHANQRKSVREGVQELFSEMNDVIREAAEIPDDKLDPEAMLQLCREGFEELFGDI | not soluble
MPNPPAKEDTWAFGPIGSPFPDNPVKALGQQNMYVALWYKNGRPMHGRAWNNGGVIECSFPYNKSELTGVKDLGGQIQVLQYKGNHLSLGYWYNWIKYSDRFDKMDKGAEMLRCGDSFPILWSERPGGALLGYADNKTEIARFSHDGKVDEVSGSALANMLIIARELKGGPPYCECEECKSEPPKPIVRVTLNEWADFRCGDPWPTVGTPVRALGRSLDTLPGENPDQYVALWYQSGEPVMGRIWNDGGKIAACFGWGGHEYRQKIGSIQILYELPEAIRGFDYDWKPFPEAAQFGAKEWIPVHVDHHKGNISPAVLIVDGKEILGKADIRNERATIGYGGTEKVLVGPAVHSCMVLCRKAKPGCTID | soluble
